{
  "source": "paper PMC12152837",
  "about": "“Semaglutide Aggregates into Oligomeric Micelles and Short Fibrils in Aqueous Solution” (Biomacromolecules, 2025)",
  "key": {"[1]": {"assay": "Cryogenic-TEM imaging of aggregates", "assay_type": "physicochemical", "description": "Semaglutide powder was weighed, and the samples were prepared in glass vials using ultrapure water. […] The pH was observed just after preparation and after 40 days of incubation at 4 °C using pH strips due to the small volume of sample available. No evidence of microemulsion formation was observed. ^20 pH values were recorded as follows: 1 wt % fresh pH 5.5, 1 wt % aged: pH 7, 0.1 wt % fresh: pH 6.5, 0.1 wt % aged: pH 7. It is notable that the pH crosses the pK a of the N-terminal histidine (pK a = 6 is the accepted value for isolated histidine) for the more concentrated solution upon aging.\nImaging was carried out using a field emission cryo-electron microscope (JEOL JEM-3200FSC), operating at 200 kV. Images were taken in bright field mode and using zero loss energy filtering (omega type) with a slit width of 20 eV. Micrographs were recorded using a Gatan Ultrascan 4000 CCD camera. The specimen temperature was maintained at −187 °C during the imaging. Vitrified specimens were prepared by using an automated FEI Vitrobot device using Quantifoil 3.5/1 holey carbon copper grids with a hole size of 3.5 μm. Just prior to use, grids were plasma cleaned using a Gatan Solarus 9500 plasma cleaner and then transferred into the environmental chamber of a FEI Vitrobot at room temperature and 100% humidity. Thereafter, 3 μL of sample solution was applied on the grid, and it was blotted twice for 5 s and then vitrified in a 1/1 mixture of liquid ethane and propane at a temperature of −180 °C. The grids with vitrified sample solution were maintained at liquid nitrogen temperature and then cryo-transferred to the microscope."}, "[2]": {"assay": "pH of aqueous solutions (pH strips)", "assay_type": "physicochemical", "description": "(§1) Semaglutide powder was weighed, and the samples were prepared in glass vials using ultrapure water. To monitor the aggregation and stability, some samples were left to age up to 40 days in the fridge at 4 °C, protected from the light. The pH was observed just after preparation and after 40 days of incubation at 4 °C using pH strips due to the small volume of sample available. No evidence of microemulsion formation was observed. ^20 pH values were recorded as follows: 1 wt % fresh pH 5.5, 1 wt % aged: pH 7, 0.1 wt % fresh: pH 6.5, 0.1 wt % aged: pH 7. It is notable that the pH crosses the pK a of the N-terminal histidine (pK a = 6 is the accepted value for isolated histidine) for the more concentrated solution upon aging."}, "Caco-2 cells": {"tested_on": "Caco-2 cells", "assay": "Transepithelial electrical resistance (TEER) transwell permeability assay", "assay_type": "cell-based", "details": "Caco-2 monolayer on transwell, DMEM without serum, 37 °C, pH 7.4, duplicate wells, relative to DMEM control", "description": "As a model of the gut epithelium, 1.5 × 10^5 Caco-2 (ATCC, EUA) immortalized colorectal adenocarcinoma cells were seeded into 12 mm Millicell hanging cell culture transwells, with a PET lower membrane permeated by pores 0.4 μm in diameter. The transwells were then inserted into a 12-well plate to create a bicameral chamber system separated by the transwell PET membrane. The cells were cultivated until reaching confluence in DMEM supplemented with 10% FBS for at least 3 weeks before starting the TEER assay in order to form semipermeable membranes composed of Caco-2 cells separating the two chambers. For the TEER assay, a multimeter (TLC Electrical, UK). The microelectrodes were immobilized in a chopstick pattern and coated in carbon conductive ink to prevent corrosion, similar to previous reports using low-cost Volt-ohmeters for TEER. −\nThe resistance for the Caco-2 membrane tissue (R tissue) is measured in Ohms (Ω) and defined as Rtissue=RTotal−RBlank\nThis represents the total resistance of the system containing the semipermeable membranes minus the initial resistance from the cell containing only media or PBS. […]\nThe area calculated for the transwells used in this assay is M Area (cm^2) = 1.12 cm^2. […] The TEER was calculated and is reported as % values relative to controls incubated without semaglutide."}, "[3]": {"assay": "Small-angle X-ray scattering (SAXS) of aggregates in water", "assay_type": "physicochemical", "details": "for effective charge modulus per micelle z eff: Hayter–Penfold structure factor fit; for micelle inner core radius Ri / micelle outer radius Ro ± Gaussian polydispersity: core-shell sphere form factor", "description": "as §1\nSAXS experiments were performed on beamline B21 at Diamond Light Source (Harwell, UK) and SWING at synchrotron SOLEIL (Gif-sur-Yvette, France) and on the labSAXS instrument at Diamond Light Source.\nOn B21, the sample solutions were loaded into the 96-well plate of an EMBL BioSAXS robot and then injected via an automated sample exchanger into a quartz capillary (1.8 mm internal diameter) in the X-ray beam. The quartz capillary was enclosed in a vacuum chamber to avoid parasitic scattering. After the sample was injected into the capillary and reached the X-ray beam, the flow was stopped during the SAXS data acquisition. Beamline B21 operates with fixed camera length (3.9 m) and fixed energy (12.4 keV). The images were captured by using a PILATUS 2 M detector. Data processing was performed using the dedicated beamline software ScÅtter. […]\nSAXS experiments (extending to higher q) were also performed using a lab-based Xeuss 3.0 (Xenocs, France) instrument at Diamond Light Source, equipped with a liquid gallium MetalJet X-ray source (Excillum, Sweden) with an energy of 9.24 keV, corresponding to a wavelength of 1.34 Å. SAXS patterns were measured for 28800 s with an incident X-ray photon flux of roughly 4.06 × 10^6 ph/s on an EIGER2 R 1M detector (Dectris, Switzerland), and the sample-to-detector distance was set to 315 mm, giving a q range of 0.17–1.1 nm^–1. The beam size is roughly 0.4 × […] on the sample. The sample environment was a custom-designed low-noise flow-through cell having a thickness of roughly 0.7 mm and an area of 1.1 mm × 1.1 mm. The window material is silicon nitride. Silver behenate (layer spacing, d = 58.38 Å) was used to calibrate the SAXS data. SAXS images were analyzed using the IDL-based AXcess software package or software DAWN.\nThe association number of the micelle can be obtained in a model-independent fashion from the forward scattering intensity of the SAXS data in dilute solution. , The measured synchrotron SAXS data presented here is in absolute units (cm^–1) and the forward scattering (at q = 0) can be written as 1 I(0)=cmicMmic[r0vp(ρl−ρ0)]^2/NA Here, c mic is the concentration of micelles, M mic is the micelle molar mass, r 0 is the classical electron radius [0.28179 × 10^–12 cm e ^–1], v p is the partial specific volume, and ρl and ρ0 represent the lipopeptide and solvent (water) electron density. […] Rearranging eq gives 2 Mmic=I(0)NA/cmic[r0vp(ρl−ρ0)]^2 […]\nTable S1. Fit parameters to the SAXS data in Fig.2b using a core-shell sphere form form factor with the Hayter-Penfold RMSA structure factor.1 The monodisperse approximation to factor the form and structure factors of isotropic solutions of centrosymmetric particles is assumed. Fitting performed using SASfit.2-3 […]\n(Diamond synch.) (Diamond synch.) (Diamond synch.) (Lab SAXS)b […]\nKey: Core-Shell Sphere Form factor: Ro: outer radius (σc Gaussian polydispersity in R0), Ri: inner radius, µ: ratio of scattering contrast of inner core/outer core, η: scattering contrast of core. Structure factor: RHS, hard sphere radius, φ: effective volume fraction zeff: effective charge modulus, I: ionic strength (temperature fixed at T = 293 K).\nGaussian coils: Rg: radius of gyration, Ic: intensity. Background: BG (constant). […]"}, "[4]": {"assay": "ESI-MS integrity and appearance of solution after aging", "assay_type": "physicochemical", "description": "Semaglutide was purchased from Bioserv (Calibre Scientific, Rotherham, UK). The purity by HPLC was >95%, and it was supplied in nonsalt (base) form. The molar mass is M = 4115.7 g mol^–1 (4113.6 g mol^–1 expected). Purity (by HPLC) is >98%.\nas §1"}, "[5]": {"assay": "Nile red fluorescence assay of critical micelle concentration", "assay_type": "physicochemical", "details": "45-day aged sample in water, stored at 4 °C; 5 μM Nile red, λexc 550 nm, peak fluorescence intensity at 635 nm versus concentration", "description": "Fluoroscence of tryptophan in semaglutide was excited at λexc= 295 nm, and fluorescence emission spectra were measured using a Cary Eclipse spectrofluorometer (Agilent, Didcot, UK) with excitation and emission slits of 5 nm. The spectra were recorded from 300 to 600 nm. The temperature was maintained at 20 °C during the measurements. This protocol was performed using fresh Semaglutide samples and then repeated using the same samples stored at 4 °C for 40 days, protected from the light. To determine the critical aggregation concentration (CAC) of semaglutide using Nile red, Semaglutide samples (45-day aged) were prepared in 5 μM of Nile red. The wavelength for excitation was set at λexc = 550 nm with 5 nm windows, and spectra were collected from 570 to 750 nm.\nSI Fig.S13. Nile red fluorescence assay of critical micelle concentration (CMC) for a\n45-day aged sample. (a) Plot of peak fluorescence intensity (l = 635 nm) versus\nconcentration, (b) Original fluorescence spectra.\nFluorescence Intensity (l635 nm)\nFluorescence intensity / arb. units […]"}, "[6]": {"details": "0.5 wt % in water, aged 40 days, Diamond synchrotron"}, "[7]": {"details": "0.5 wt %, aged 40 days, Diamond synchrotron, fixed for the fits"}, "[8]": {"details": "1 wt % in water, aged 40 days, Diamond synchrotron"}, "[9]": {"details": "1 wt %, aged 40 days, Diamond synchrotron, fixed for the fits"}},
  "note": "Several values for one entry are separate records, joined by “and”; a condition that tells them apart may be missing. Identical values can stand only once.",
  "data": [
    {"substance": "Semaglutide", "values": [
      {"measurement": "diameter of micelle-like structures", "setting": "[1]; 1 wt % in water, aged 40 days at 4 °C, cryo-TEM", "value": "< 5", "unit": "nm"},
      {"measurement": "morphology by cryo-TEM, further aging", "setting": "[1]; 1 wt % sample aged 79 days, compared to the 40-day aged sample", "value": "no further change in morphology"},
      {"measurement": "morphology by cryo-TEM", "setting": "[1]; freshly dissolved 1 wt % solution in water", "value": "irregular clustered morphology"},
      {"measurement": "pH of solution", "setting": "[2]; 0.1 wt % in ultrapure water, aged 40 days at 4 °C", "value": 7},
      {"measurement": "pH of solution", "setting": "[2]; 0.1 wt % in ultrapure water, fresh", "value": 6.5},
      {"measurement": "pH of solution", "setting": "[2]; 1 wt % in ultrapure water, aged 40 days at 4 °C", "value": 7},
      {"measurement": "pH of solution", "setting": "[2]; 1 wt % in ultrapure water, fresh", "value": 5.5},
      {"measurement": "TEER, % of the initial TEER", "setting": "Caco-2 cells; aged (40 days, 4 °C) semaglutide 0.02 wt %, after 2–4 h", "value": "around 90%"},
      {"measurement": "TEER, % of the initial TEER", "setting": "Caco-2 cells; fresh semaglutide 0.02 wt %, after 30 min", "value": "around 80%"},
      {"measurement": "radius of gyration Rg (Gaussian coils)", "setting": "[3]; 0.1 wt % in water, aged 40 days, Diamond synchrotron", "value": 1.57, "unit": "nm"},
      {"measurement": "micelle molar mass M mic", "setting": "[3]; 0.1 wt % in water, aged 40 days, from SAXS forward scattering I(0) = 0.0025 cm^–1", "value": 9111, "unit": "g mol^–1"},
      {"measurement": "association number p", "setting": "[3]; 0.1 wt % in water, aged 40 days, from SAXS forward scattering I(0), p = Mmic/Mmol", "value": "≈ 2.2"},
      {"measurement": "hard sphere radii R HS from the structure factor", "setting": "[3]; 0.5 and 1 wt % aged solutions", "value": "2.23–2.54 nm"},
      {"measurement": "hard sphere radius RHS", "setting": "[3]; [6]", "value": 2.23, "unit": "nm"},
      {"measurement": "effective charge modulus per micelle z eff", "setting": "[3]; [6]", "value": 9.81},
      {"measurement": "micelle inner core radius Ri", "setting": "[3]; [7]", "value": 1.50, "unit": "nm"},
      {"measurement": "micelle outer radius Ro ± Gaussian polydispersity", "setting": "[3]; [7]", "value": "2.31±0.59", "unit": "nm"},
      {"measurement": "hard sphere radius RHS", "setting": "[3]; [8]", "value": 2.54, "unit": "nm"},
      {"measurement": "effective charge modulus per micelle z eff", "setting": "[3]; [8]", "value": 10.8},
      {"measurement": "association number p", "setting": "[3]; 1 wt % in water, aged, rough estimate from the ratio of low-q intensity for 1 and 0.1 wt %", "value": "12–15"},
      {"measurement": "hard sphere radius RHS", "setting": "[3]; 1 wt %, Lab SAXS", "value": 2.54, "unit": "nm"},
      {"measurement": "radius of gyration Rg (additional Gaussian coil term)", "setting": "[3]; 1 wt %, Lab SAXS, term for high q scattering", "value": 0.8, "unit": "nm"},
      {"measurement": "effective charge modulus per micelle z eff", "setting": "[3]; 1 wt %, Lab SAXS", "value": 9.00},
      {"measurement": "micelle inner core radius Ri", "setting": "[3]; 1 wt %, Lab SAXS", "value": 1.50, "unit": "nm"},
      {"measurement": "micelle outer radius Ro ± Gaussian polydispersity", "setting": "[3]; 1 wt %, Lab SAXS", "value": "2.31±0.59", "unit": "nm"},
      {"measurement": "micelle inner core radius Ri", "setting": "[3]; [9]", "value": 1.50, "unit": "nm"},
      {"measurement": "micelle outer radius Ro ± Gaussian polydispersity", "setting": "[3]; [9]", "value": "2.31±0.59", "unit": "nm"},
      {"measurement": "micelle radius", "setting": "[3]; as determined from cryo-TEM and SAXS, aged solutions at sufficiently high concentration", "value": 2, "unit": "nm"},
      {"measurement": "chemical stability in solution (degradation)", "setting": "[4]; aqueous solution, 40 days of aging at 4 °C protected from light, ESI-MS", "value": "No evidence for degradation in solution was observed"},
      {"measurement": "appearance of solutions", "setting": "[4]; solutions in pure water prepared in glass vials", "value": "transparent"},
      {"measurement": "critical micelle concentration (CMC)", "setting": "[5]", "value": "0.06 wt % and 0.06 ± 0.005 wt %"}
    ]}
  ]
}
